This is an account of results in US20180291107A1 (Eli Lilly, published 2018).

The target in assay [1] is T1, mouse CSF-1R (mouse, UniProt P09581 20-511, limits assumed).
T1 construct: also called murine target protein (of the CSF-1R antibody); murine CSF-1R
T1 sequence (looked up): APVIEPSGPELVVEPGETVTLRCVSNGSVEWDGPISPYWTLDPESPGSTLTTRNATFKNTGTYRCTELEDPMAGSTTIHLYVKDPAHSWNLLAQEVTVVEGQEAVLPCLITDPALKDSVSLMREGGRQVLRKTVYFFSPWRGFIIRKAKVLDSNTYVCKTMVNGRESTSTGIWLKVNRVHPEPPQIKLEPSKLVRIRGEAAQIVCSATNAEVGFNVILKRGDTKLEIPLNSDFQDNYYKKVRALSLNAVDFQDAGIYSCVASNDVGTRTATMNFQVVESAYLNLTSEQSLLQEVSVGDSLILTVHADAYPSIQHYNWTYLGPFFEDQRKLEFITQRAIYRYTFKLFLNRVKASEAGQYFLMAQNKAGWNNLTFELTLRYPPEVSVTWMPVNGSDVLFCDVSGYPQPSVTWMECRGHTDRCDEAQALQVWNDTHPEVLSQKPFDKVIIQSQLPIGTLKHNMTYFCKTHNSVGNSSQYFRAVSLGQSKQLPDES
As to the kind of experiment: not described.

Assay [2] concerns the target T2, mouse PD-L1 (mouse, UniProt Q9EP73 19-238, limits assumed).
T2 construct: also called murine target protein (of the PD-L1 antibody); murine PD-L1
As to the kind of experiment: not described.

For assay [3], the target named is T3, Soluble human PD-L1-Fc fusion protein (human, UniProt Q9NZQ7 19-239, limits assumed).
T3 construct: not shown: Fc part
T3 sequence (Q9NZQ7 19-239 limits assumed): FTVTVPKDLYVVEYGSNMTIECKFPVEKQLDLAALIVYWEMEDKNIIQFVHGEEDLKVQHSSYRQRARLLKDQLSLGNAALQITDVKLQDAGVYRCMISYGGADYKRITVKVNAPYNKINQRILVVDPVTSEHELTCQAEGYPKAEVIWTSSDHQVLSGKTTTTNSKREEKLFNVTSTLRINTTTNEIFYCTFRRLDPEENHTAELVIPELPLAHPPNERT
Description: SPR (Biacore T200), antibody immobilised, PD-L1-Fc as analyte, 37 C, 1:1 model. As to the method: The kinetics and equilibrium dissociation constant (KD) for human PD-L1 is determined for anti-PD-L1 antibodies of the present invention using surface plasmon resonance (Biacore).
Immobilization of anti-PD-L1 antibodies of the present invention as ligand on to sensor chip surface is performed at 25° C. Soluble human PD-L1-Fc fusion protein is injected as analyte at concentrations ranging from 0.0123 nM-9 nM. The analysis is performed at 37° C. The contact time for each sample is 180 sec at 30 μl/min. The dissociation time was 240-1500 seconds. The immobilized surface is regenerated for 18 seconds with 0.95 M NaCl/25 mM NaOH at […], and then stabilized for 30 seconds. Binding kinetics are analyzed using the Biacore T200 Evaluation software (Version 3.0). Data are referenced to a blank flow cell, and the data are fit to a 1:1 binding model.

T2 sequence (Q9EP73 19-238 limits assumed): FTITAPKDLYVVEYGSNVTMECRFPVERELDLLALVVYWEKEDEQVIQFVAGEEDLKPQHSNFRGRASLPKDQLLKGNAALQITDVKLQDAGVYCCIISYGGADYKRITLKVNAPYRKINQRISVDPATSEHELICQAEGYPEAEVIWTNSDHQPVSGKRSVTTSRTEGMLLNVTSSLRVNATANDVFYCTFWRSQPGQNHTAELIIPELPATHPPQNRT

B1: CS7 (antibody, V domains shown)
VH: DRQMVESGGGLVRPGRSLKLSCAASGFTFSNYYMAWVRLAPSKGLEWVASISPSGDNTYYPDSVQGRFTISRDNAETTLYLQVDSLRSEDTATYYCATRHYGYSFFDYWGQGVLVTVSS
VL: DTVLTQSPALAVSPGERVTISCRASESVSTLIHWYQQKPGQQPKLLIFLASHLESGVPARFSGSGSGTDFTFTIDPVEADDTATYYCQQSWNDPPTFGGGTKLELK
notes: Rat antibody generated from a hybridoma; also called IMC-CS7; rat anti-mouse CSF-1R antibody
Consider B1, for which the binding result in assay [1] is on record as “binds”.

B2: Antibody A (antibody, human IgG1, lambda, V domains shown)
VH: QVQLVQSGAEVKKPGSSVKVSCKASGGTFSSYAISWVRQAPGQGLEWMGGIIPIFGTANYAQKFQGRVTITADKSTSTAYMELSSLRSEDTAVYYCARSPDYSPYYYYGMDVWGQGTTVTVSS
VL: QSVLTQPPSASGTPGQRVTISCSGSSSNIGSNTVNWYQQLPGTAPKLLIYGNSNRPSGVPDRFSGSKSGTSASLAISGLQSEDEADYYCQSYDSSLSGSVFGGGIKLTVLG
notes: also called Anti-PD-L1 antibody
Regarding B2, the binding result in assay [2] was “no binding”. Further, the affinity in assay [3], expressed as Kd, was 0.082 nM.

B3: Antibody 1 (antibody, human IgG1, kappa, V domains shown)
VH: QDQLVESGGGVVQPGRSLRLSCAASGFTFSSYGMHWVRQAPGEGLEWVAVIWYDGSNKYYADSVKGRFTISRDNSKNTLYLQMNSLRAEDTAVYYCARGDYEVDYGMDVWGQGTTVTVAS
VL: AIQLTQSPSSLSASVGDRVTITCRASQGISNALAWYQQKPGKAPKLLIYDASSLESGVPSRFSGSGSGTDFTLTISSLQPEDFATYYCQQFNSYPWTFGQGTKVEIKR
notes: also called Anti-CSF-1R antibody
As to B3, the binding result in assay [1] is “no binding”.

As a reminder, the Kd is the equilibrium constant for the complex coming apart. Higher therefore signals lower affinity.
